In EP4803149A2 (Lyvgen Biopharma Holdings Limited, dated 2026):
Substitutions are numbered along the chain they refer to.

B1: Ly2278 (bispecific antibody)
chain 1: QVQLQQSGAELVRPGSSVKISCKASGYAFSSYWMNWVKQRPGQGLEWIGQIWPGDGDTNYNGKFKGKATLTADESSSTAYMQLSSLASEDSAVYFCARRETTTVGRYYYAMDYWGQGTTVTVSSASTKGPSVFPLAPSSKSTSGGTAALGCLVKDYFPEPVTVSWNSGALTSGVHTFPAVLQSSGLYSLSSVVTVPSSSLGTQTYICNVNHKPSNTKVDKKVEPKSCGGGGSGGGGSGGGGSGGGGSEVQLVESGGGLVQPGGSLRLSCAASGFTFSTYAMNWVRQAPGKGLEWVGRIRSKYNNYATYYADSVKGRFTISRDDSKNSLYLQMNSLKTEDTAVYYCVRHGNFGNSYVSWFAYWGQGTLVTVSSGGGGSDKTHTCPPCPAPEAAGPSVFLFPPKPKDTLMISRTPEVTCVVVDVSHEDPEVKFNWYVDGVEVHNAKTKPREEQYNSTYRVVSVLTVLHQDWLNGKEYKCKVSNKALPAPIEKTISKAKGQPREPQVYTLPPSREEMTKNQVSLWCLVKGFYPSDIAVEWESNGQPENNYKTTPPVLDSDGSFFLYSKLTVDKSRWQQGNVFSCSVMHEALHNHYTQKSLSLSPG
chain 2: QVQLQQSGAELVRPGSSVKISCKASGYAFSSYWMNWVKQRPGQGLEWIGQIWPGDGDTNYNGKFKGKATLTADESSSTAYMQLSSLASEDSAVYFCARRETTTVGRYYYAMDYWGQGTTVTVSSASTKGPSVFPLAPSSKSTSGGTAALGCLVKDYFPEPVTVSWNSGALTSGVHTFPAVLQSSGLYSLSSVVTVPSSSLGTQTYICNVNHKPSNTKVDKKVEPKSCGGGGSGGGGSGGGGSGGGGSQAVVTQEPSLTVSPGGTVTLTCRSSTGAVTTSNYANWVQQKPGQAPRGLIGGTNKRAPWTPARFSGSLLGGKAALTITGAQAEDEADYYCALWYSNLWVFGGGTKLTVLGGGGSDKTHTCPPCPAPEAAGPSVFLFPPKPKDTLMISRTPEVTCVVVDVSHEDPEVKFNWYVDGVEVHNAKTKPREEQYNSTYRVVSVLTVLHQDWLNGKEYKCKVSNKALPAPIEKTISKAKGQPREPQVYTLPPSREEMTKNQVSLSCAVKGFYPSDIAVEWESNGQPENNYKTTPPVLDSDGSFFLVSKLTVDKSRWQQGNVFSCSVMHEALHNRFTQKSLSLSPG
chain 3: not shown
notes: CD19/CD3; central CD3 Fv
B2: Ly1966 (multi-specific antibody)
chain 1: QVQLQQSGAELVRPGSSVKISCKASGYAFSSYWMNWVKQRPGQGLEWIGQIWPGDGDTNYNGKFKGKATLTADESSSTAYMQLSSLASEDSAVYFCARRETTTVGRYYYAMDYWGQGTTVTVSSASTKGPSVFPLAPSSKSTSGGTAALGCLVKDYFPEPVTVSWNSGALTSGVHTFPAVLQSSGLYSLSSVVTVPSSSLGTQTYICNVNHKPSNTKVDKKVEPKSCGGGGSGGGGSGGGGSGGGGSEVQLVESGGGLVQPGGSLRLSCAASGFTFSTYAMNWVRQAPGKGLEWVGRIRSKYNNYATYYADSVKGRFTISRDDSKNSLYLQMNSLKTEDTAVYYCVRHGNFGNSYVSWFAYWGQGTLVTVSSGGGGSDKTHTCPPCPAPEAAGPSVFLFPPKPKDTLMISRTPEVTCVVVDVSHEDPEVKFNWYVDGVEVHNAKTKPREEQYNSTYRVVSVLTVLHQDWLNGKEYKCKVSNKALPAPIEKTISKAKGQPREPQVYTLPPSREEMTKNQVSLWCLVKGFYPSDIAVEWESNGQPENNYKTTPPVLDSDGSFFLYSKLTVDKSRWQQGNVFSCSVMHEALHNHYTQKSLSLSPGGGGGSGGGGSGGGGSGGGGSQVQLVQSGAEVKKPGASVKVSCKASGYTFAGFEMHWVRQAPGQGLEWMGAIDPKTGGTDYNQKFKDRVTMTRDTSISTAYMELSRLRSDDTAVYYCARDLGYFDVWGQGTLVTVSS
chain 2: QVQLQQSGAELVRPGSSVKISCKASGYAFSSYWMNWVKQRPGQGLEWIGQIWPGDGDTNYNGKFKGKATLTADESSSTAYMQLSSLASEDSAVYFCARRETTTVGRYYYAMDYWGQGTTVTVSSASTKGPSVFPLAPSSKSTSGGTAALGCLVKDYFPEPVTVSWNSGALTSGVHTFPAVLQSSGLYSLSSVVTVPSSSLGTQTYICNVNHKPSNTKVDKKVEPKSCGGGGSGGGGSGGGGSGGGGSQAVVTQEPSLTVSPGGTVTLTCRSSTGAVTTSNYANWVQQKPGQAPRGLIGGTNKRAPWTPARFSGSLLGGKAALTITGAQAEDEADYYCALWYSNLWVFGGGTKLTVLGGGGSDKTHTCPPCPAPEAAGPSVFLFPPKPKDTLMISRTPEVTCVVVDVSHEDPEVKFNWYVDGVEVHNAKTKPREEQYNSTYRVVSVLTVLHQDWLNGKEYKCKVSNKALPAPIEKTISKAKGQPREPQVYTLPPSREEMTKNQVSLSCAVKGFYPSDIAVEWESNGQPENNYKTTPPVLDSDGSFFLVSKLTVDKSRWQQGNVFSCSVMHEALHNRFTQKSLSLSPGGGGGSGGGGSGGGGSGGGGSDIQMTQSPSSLSASVGDRVTITCRASQDIRSNLNWYQQKPGGAVKLLIYYTSRLHSGVPSRFSGSGSGTDYTLTISSLQPEDFATYFCQQSEKLPRTFGGGTKVEIR
chain 3: not shown
notes: CD19/CD3/CD137
B3: Ly1967 (multi-specific antibody)
chain 1: B2 chain 1
chain 2: B2 chain 2 with R575H, F576Y
chain 3: not shown
notes: CD19/CD3/CD137 multi-specific

Target: CD3 (human)
Assay: ELISA or FCM (as in Example 2)

Going from B1 to B2, the EC50 falls from 1.46 µg/mL to 0.348 µg/mL (4.2-fold).

Binder B3 has an EC50 of 1.56 µg/mL.
